# Measurements reported in publication doi:10.1101/2021.05.31.446396 (bioRxiv, 2021).
# B1: EccCb1 enzyme, full length (Met1-Glu591), M. tuberculosis ESX-1 (enzyme)
# chain: MTAEPEVRTLREVVLDQLGTAESRAYKMWLPPLTNPVPLNELIARDRRQPLRFALGIMDEPRRHLQDVWGVDVSGAGGNIGIGGAPQTGKSTLLQTMVMSAAATHSPRNVQFYCIDLGGGGLIYLENLPHVGGVANRSEPDKVNRVVAEMQAVMRQRETTFKEHRVGSIGMYRQLRDDPSQPVASDPYGDVFLIIDGWPGFVGEFPDLEGQVQDLAAQGLAFGVHVIISTPRWTELKSRVRDYLGTKIEFRLGDVNETQIDRITREIPANRPGRAVSMEKHHLMIGVPRFDGVHSADNLVEAITAGVTQIASQHTEQAPPVRVLPERIHLHELDPNPPGPESDYRTRWEIPIGLRETDLTPAHCHMHTNPHLLIFGAAKSGKTTIAHAIARAICARNSPQQVRFMLADYRSGLLDAVPDTHLLGAGAINRNSASLDEAVQALAVNLKKRLPPTDLTTAQLRSRSWWSGFDVVLLVDDWHMIVGAAGGMPPMAPLAPLLPAAADIGLHIIVTCQMSQAYKATMDKFVGAAFGSGAPTMFLSGEKQEFPSSEFKVKRRPPGQAFLVSPDGKEVIQAPYIEPPEEVFAAPPSAG
# Target: the molecule itself
# Assay: SAXS
protein,measurement,value
B1,stoichiometry N,12
